# Reference: patent US20240352438A1, “MEANS AND METHODS FOR DETOXIFYING OCHRATOXIN A” (DSM Austria GmbH, priority 2021, published 2024)
# Experiment: OTA detoxification activity assay (specific activity, fluorescence reduction ex/em 390/450 nm)
# Assay type: biochemical
# Conditions: SEQ ID NO: 1 = 100%
# Description: To determine the specific activity of recombinant target polypeptides produced e.g. as described in Example 2 above in units per liter (U/L), ochratoxin A (OTA) detoxification activity assays were performed. One unit is defined as the amount of enzyme necessary for degradation of 1 μmol or OTA in 1 min when using a starting OTA concentration of […].
# OTA detoxification activity assays were set up in a final volume of the reaction mixture of […], containing the recombinant enzyme preparation (preferably diluted to yield a volumetric activity of 1-10 mU/L), and 200 ng/mL OTA in 100 mM sodium phosphate buffer.
# Specific activities were determined at pH 6.0 and pH 7.5. As soon as all components of the reaction mixture were mixed, OTA degradation was followed at 37° C. on a fluorescence spectrophotometer (BioTek Synergy H1 MFD Multimode microplate reader) by following the reduction in fluorescence at ex/em 390 nm/450 nm. For work performed at pH 6.0 and 7.5, a 100 mM sodium phosphate buffer was used.
# For calculation of the specific activity, the initial linear part of the recorded fluorescence reduction curve was used. In addition to the fluorescence-based method described above, OTA degradation was also determined by using the HPLC-MS method as described by Dellafiora et al. 2020, Toxins 12, 258, essentially confirming the fluorescence-based results. Genes encoding either of the indicated SEQ ID NOs are expressed as described herein and the specific activities for the obtained polypeptide preparation are exemplarily shown in Table 8. Analogously, enzymatic activities using either ochratoxin B, C or TA as substrate or can be found.
Molecule,"Specific OTA detoxification activities in % compared to the enzyme of SEQ ID NO: 1, pH 6.0 [%]","Specific OTA detoxification activities in % compared to the enzyme of SEQ ID NO: 1, pH 7.5 [%]"
"191 (protein, exemplary polypeptide) MTTRTRILTAFLSLLAANACAADAAPAAPHTVVLRAARMFDGASGKLVDHPQLTIVGNKIVRIAQGDKAEVPAGAEVVDLGDATLLPGFIDAHVHLSGQSSDNWYGDFFDNMMRFPAEQALYGAYYARITLEAGFTSVRDVGSTDWVALGLRNAIDAGKVPGPRMLVSNYAVGSTGGHADQDPIPPHKLPLAGPLQGVCNGPEECRAAVRYQIKYGANVIKFMPSGGVLSLSDPVDAPELSQDEMNAVIGESHAWGRKVAAHAHGDKAAKMAVAAGVDSIEHGSFIEDDTLRAMKAKNVYLVPTISAIAHVEEKIGTFPPVIAEKGRAAAAHLRQTFRHAVQIGVPIALGTDATVGAHGSNAREFRYMVENGLTPAQALLAGTANAARLLGTFDRVGTLEAGKLADVVAVPGNPIADITVTERPLFVMKDGVVVRRDAVR",21,28
"199 (protein, exemplary polypeptide) MTTRTRILTAFLSLLAANACAADAAPAAPHTVVLRAARMFDGASGKLVDHPQLTIVGNKIVRIAQGDKAEVPAGAEVVDLGDATLLPGFIDAHVHLSGQSSDNLYGDFFDNMMRFPAEQALYGAYYARITLEAGFTSVRDVGSTDWVALGLRNAIDAGKVPGPRMLVSNYAVGSTGGHADQDPIPPHKLPLAGPLQGVCNGPEECRAAVRYQIKYGANVIKFMPSGGVLSLSDPVDAPELSQDEMNAVIGESHAWGRKVAAHAHGDKAAKMAVAAGVDSIEHGSFIEDDTLRAMKAKNVYLVPTISAIAHVEEKIGTFPPVIAEKGRAAAAHLRQTFRHAVQIGVPIALGTDAGVGAHGSNAREFRYMVENGLTPAQALLAGTANAARLLGTFDRVGTLEAGKLADVVAVPGNPIADITVTERPLFVMKDGVVVRRDAVR",9,34
"204 (protein, exemplary polypeptide) MTTRTRILTAFLSLLAANACAADAAPAAPHTVVLRAARMFDGASGKLVDHPQLTIVGNKIVRIAQGDKAEVPAGAEVVDLGDATLLPGFIDAHVHLSGQSSDNWYGDFFDNMMRFPAEQALYGAYYARITLEAGFTSVRDVGSTDWVALGLRNAIDAGKVPGPRMLVSNYAVGSTGGHADQDPIPPHKLPLAGPLQGVCNGPEECRAAVRYQIKYGANVIKFMPSGGVLSLSDPVDAPELSQDEMNAVIGESHAWGRKVAAHAHGDKAAKMAVAAGVDSIEHGSFIEDDTLRAMKAKNVYLVPTISAIAHVEEKIGTFPPVQAEKGRAAAAHLRQTFRHAVQIGVPIALGTDAGVGAHGSNAREFRYMVENGLTPAQALLAGTANAARLLGTFDRVGTLEAGKLADVVAVPGNPIADITVTERPLFVMKDGVVVRRDAVR",41,24
"223 (protein, exemplary polypeptide) MTTRTRILTAFLSLLAANACAADAAPAAPHTVVLRAARMFDGASGKLVDHPQLTIVGNKIVRIAQGDKAEVPAGAEVVDLGDATLLPGFIDAHVHLSGQSSDNWYGDFFDNMMRFPAEQALYGAYYARITLEAGFTSVRDVGSTDWVALGLRNAIDAGKVPGPRMLVSNYAVGSTGGHADQDPIPPHELPLAGPLQGVCNGPEECRAAVRYQIKYGANVIKFMPSGGVLSLSDPVDAPELSQDEMNAVIGESHAWGRKVAAHAHGDKAAKMAVAAGVDSIEHGSFIEDDTLRAMKAKNVYLVPTISAIAHVEEKIGTFPPVIAEKGRAAAAHLRQTFRHAVQIGVPIALGTDAGVGAHGSNAREFRYMVENGLTPAQALLAGTANAARLLGTFDRVGTLEAGKLADVVAVPGNPIADITVTERPLFVMKDGVVVRRDAVR",14,16
"222 (protein, exemplary polypeptide) MTTRTRILTAFLSLLAANACAADAAPAAPHTVVLRAARMFDGASGKLVDHPQLTIVGNKIVRIAQGDKAEVPAGAEVVDLGDATLLPGFIDAHVHLSGQSSDNWYGDFFDNMMRFPAEQALYGAYYARITLEAGFTSVRDVGSTDWVALGLRNAIDAGKVPGPRMLVSNYAVGSTGGHADQDPIPPHDLPLAGPLQGVCNGPEECRAAVRYQIKYGANVIKFMPSGGVLSLSDPVDAPELSQDEMNAVIGESHAWGRKVAAHAHGDKAAKMAVAAGVDSIEHGSFIEDDTLRAMKAKNVYLVPTISAIAHVEEKIGTFPPVIAEKGRAAAAHLRQTFRHAVQIGVPIALGTDAGVGAHGSNAREFRYMVENGLTPAQALLAGTANAARLLGTFDRVGTLEAGKLADVVAVPGNPIADITVTERPLFVMKDGVVVRRDAVR",8,20
"226 (protein, exemplary polypeptide) MTTRTRILTAFLSLLAANACAADAAPAAPHTVVLRAARMFDGASGKLVDHPQLTIVGNKIVRIAQGDKAEVPAGAEVVDLGDATLLPGFIDAHVHLSGQSSDNWYGDFFDNMMRFPAEQALYGAYYARITLEAGFTSVRDVGSTDWVALGLRNAIDAGKVPGPRMLVSNYAVGSTGGHADQDPIPPHKLPLAGPLQGVCNGPEECRAAVRYQIKYGANVIKFMPSPGVLSLSDPVDAPELSQDEMNAVIGESHAWGRKVAAHAHGDKAAKMAVAAGVDSIEHGSFIEDDTLRAMKAKNVYLVPTISAIAHVEEKIGTFPPVIAEKGRAAAAHLRQTFRHAVQIGVPIALGTDAGVGAHGSNAREFRYMVENGLTPAQALLAGTANAARLLGTFDRVGTLEAGKLADVVAVPGNPIADITVTERPLFVMKDGVVVRRDAVR",19,22
"205 (protein, exemplary polypeptide) MTTRTRILTAFLSLLAANACAADAAPAAPHTVVLRAARMFDGASGKLVDHPQLTIVGNKIVRIAQGDKAEVPAGAEVVDLGDATLLPGFIDAHVHLSGQSSDNWYGDFFDNMMRFPAEQALYGAYYARITLEAGFTSVRDVGSTDWVALGLRNAIDAGKVPGPRMLVSNYAVGSTGGHADQDPIPPHKLPLAGPLQGVCNGPEECRAAVRYQIKYGANVIKFMPSGGVLSLSDPVDAPELSQDEMNAVIGESHAWGRKVAAHAHGDKAAKMAVAAGVDSIEHGSFIEDDTLRAMKAKNVYLVPTISAIAHVEEKIGTFPPVSAEKGRAAAAHLRQTFRHAVQIGVPIALGTDAGVGAHGSNAREFRYMVENGLTPAQALLAGTANAARLLGTFDRVGTLEAGKLADVVAVPGNPIADITVTERPLFVMKDGVVVRRDAVR",52,24
"228 (protein, exemplary polypeptide) MTTRTRILTAFLSLLAANACAADAAPAAPHTVVLRAARMFDGASGKLVDHPQLTIVGNKIVRIAQGDKAEVPAGAEVVDLGDATLLPGFIDAHVHLSGQSSDNWYGDFFDNMMRFPAEQALYGAYYARITLEAGFTSVRDVGSTDWVALGLRNAIDAGKVPGPRMLVSNYAVGSTGGHADQDPIPPHKLPLAGPLQGVCNGPEECRAAVRYQIKYGANVIKFMPSGGVLDLSDPVDAPELSQDEMNAVIGESHAWGRKVAAHAHGDKAAKMAVAAGVDSIEHGSFIEDDTLRAMKAKNVYLVPTISAIAHVEEKIGTFPPVIAEKGRAAAAHLRQTFRHAVQIGVPIALGTDAGVGAHGSNAREFRYMVENGLTPAQALLAGTANAARLLGTFDRVGTLEAGKLADVVAVPGNPIADITVTERPLFVMKDGVVVRRDAVR",23,19
"212 (protein, exemplary polypeptide) MTTRTRILTAFLSLLAANACAADAAPAAPHTVVLRAARMFDGASGKLVDPPQLTIVGNKIVRIAQGDKAEVPAGAEVVDLGDATLLPGFIDAHVHLSGQSSDNWYGDFFDNMMRFPAEQALYGAYYARITLEAGFTSVRDVGSTDWVALGLRNAIDAGKVPGPRMLVSNYAVGSTGGHADQDPIPPHKLPLAGPLQGVCNGPEECRAAVRYQIKYGANVIKFMPSGGVLSLSDPVDAPELSQDEMNAVIGESHAWGRKVAAHAHGDKAAKMAVAAGVDSIEHGSFIEDDTLRAMKAKNVYLVPTISAIAHVEEKIGTFPPVIAEKGRAAAAHLRQTFRHAVQIGVPIALGTDAGVGAHGSNAREFRYMVENGLTPAQALLAGTANAARLLGTFDRVGTLEAGKLADVVAVPGNPIADITVTERPLFVMKDGVVVRRDAVR",46,17
"215 (protein, exemplary polypeptide) MTTRTRILTAFLSLLAANACAADAAPAAPHTVVLRAARMFDGASGKLVDHPQLTIVGNKIVRIAQGDKAEVPAGAEVVDLGDATLLPGFIDAHVHLSGQSSDLWYGDFFDNMMRFPAEQALYGAYYARITLEAGFTSVRDVGSTDWVALGLRNAIDAGKVPGPRMLVSNYAVGSTGGHADQDPIPPHKLPLAGPLQGVCNGPEECRAAVRYQIKYGANVIKFMPSGGVLSLSDPVDAPELSQDEMNAVIGESHAWGRKVAAHAHGDKAAKMAVAAGVDSIEHGSFIEDDTLRAMKAKNVYLVPTISAIAHVEEKIGTFPPVIAEKGRAAAAHLRQTFRHAVQIGVPIALGTDAGVGAHGSNAREFRYMVENGLTPAQALLAGTANAARLLGTFDRVGTLEAGKLADVVAVPGNPIADITVTERPLFVMKDGVVVRRDAVR",27,20
